Test results from patent US20200062863A1 (CSL BEHRING, published 2020).
Where a chain is given by its changes, count along the chain named.

Tests used:
Assay in all cases: Western blot of culture supernatant (non-reducing SDS-PAGE) probed with 3F7 mAb, anti-human IgG-FITC
S452G = target: T1, S452G
T1 construct: also called Mu-FXII S452G mutant with C-terminal 8xHis-tag; mutant i)
T1 single chain: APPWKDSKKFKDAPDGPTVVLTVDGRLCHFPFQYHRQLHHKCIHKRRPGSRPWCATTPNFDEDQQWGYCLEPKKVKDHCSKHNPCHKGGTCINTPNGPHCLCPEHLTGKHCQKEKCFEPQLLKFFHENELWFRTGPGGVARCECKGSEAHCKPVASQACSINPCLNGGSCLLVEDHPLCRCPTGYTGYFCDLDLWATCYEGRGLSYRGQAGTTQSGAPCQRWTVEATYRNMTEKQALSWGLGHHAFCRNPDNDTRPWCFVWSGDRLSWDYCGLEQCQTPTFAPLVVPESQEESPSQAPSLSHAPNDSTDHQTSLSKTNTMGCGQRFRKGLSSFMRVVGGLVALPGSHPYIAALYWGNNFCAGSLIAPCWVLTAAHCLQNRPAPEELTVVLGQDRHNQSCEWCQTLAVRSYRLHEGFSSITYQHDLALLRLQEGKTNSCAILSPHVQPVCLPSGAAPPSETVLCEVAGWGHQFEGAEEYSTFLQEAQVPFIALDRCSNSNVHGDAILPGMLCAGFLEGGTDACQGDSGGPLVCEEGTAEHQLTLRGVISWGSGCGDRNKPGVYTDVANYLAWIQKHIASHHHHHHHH
Protocol: (§1) Proteins were then transferred electrophoretically onto nitrocellulose filters and blocked for 1 hour in 5% Milk powder in Tris-buffered saline with 0.05% Tween-20 (TTBS). Filters were then incubated for 1 hour with either 3F7 mAb or an anti-His mAb 3H3 (both at […] in TTBS with 5% Milk powder), washed thoroughly with TTBS, then incubated for a further hour with anti-human IgG-FITC or anti-mouse IgG-FITC, respectively (Millipore, USA; both at 0.25 mg/ml in TTBS with 5% Milk powder). Following further washing of membranes in TTBS, Ab-FITC bound proteins were visualized using a Typhoon variable mode analyzer (GE Healthcare, USA).

T538A = target: T2, T538A
T2 construct: also called Mu-FXII T538A mutant with C-terminal 8xHis-tag; mutant m)
T2 single chain: T1 single chain with G433S, T519A
Protocol: as §1

A589D = target: T3, A589D
T3 construct: also called Mu-FXII A589D mutant with C-terminal 8xHis-tag; mutant n)
T3 single chain: T1 single chain with G433S, A570D
Protocol: as §1

N516S = target: T4, N516S
T4 construct: also called Mu-FXII N516S mutant with C-terminal 8xHis-tag; mutant l)
T4 single chain: T1 single chain with G433S, N497S
Protocol: as §1

Measured: binding result

B1: monoclonal antibody 3F7 (fully human IgG4/lambda) (antibody, V domains shown)
VH: EVQLLESGGGLVQPGGSLRLSCAASGFTFSKYIMQWVRQAPGKGLEWVSGIRPSGGTTVYADSVKGRFTISRDNSKNTLYLQMNSLRAEDTAVYYCARALPRSGYLISPHYYYYALDVWGQGTTVTVSS
VL: QSELTQPPSASGTPGQRVTISCSGSSSNIGRNYVYWYQQVPGTAPKLLIYSNNQRPSGVPDRFSGSKSGTSASLVISGLRSEDEADYYCAAWDASLRGVFGGGTKLTVLG
notes: also called 3F7 mAb; MAb 3F7
binds: all assays above
